This note sets out measurements from paper PMC12661439.

Assay [1] has as its target HaloTag-VfAuLOV: light-oxygen-voltage (LOV) domain of Vaucheria frigida Aurochrome1 fused to HaloTag (Vaucheria frigida). As to the kind of experiment: photon counting histogram (PCH) analysis (fluorescence fluctuation spectroscopy); dissociation kinetics in living HEK293T cells: relative brightness measured at times after a 5-min exposure to blue light was turned off, each measurement 30 s; averaged curves fitted with a single-exponential decay; half-life = ln2 x lifetime.

Assay [2] has the same target. As to the kind of experiment: photon counting histogram (PCH) analysis (fluorescence fluctuation spectroscopy); light state: the same living HEK293T cells measured at once after 5 min of blue light (about 6 mW/cm^2 at the sample plane, 450-490 nm), one 30 s measurement a cell; HaloTag-JF646 fusions; brightness relative to the monomeric standard, corrected for 70% labelling; oligomer percent from a monomer-dimer (VfAuLOV) or monomer-tetramer (AtCRY2) model.

Assay [3] shares this target. As to the kind of experiment: photon counting histogram (PCH) analysis (fluorescence fluctuation spectroscopy); dark state; HaloTag fusions labelled with 200 nM JF646 in living HEK293T cells, UBC promoter, protomer about 50-1,700 nM; single-point measurement of 30 s, 20 kHz binning, 15 ns dead time, ambient temperature (22-23°C); brightness relative to the monomeric HaloTag standard and corrected for 70% labelling; population average; oligomer percent from a monomer-dimer (VfAuLOV) or monomer-tetramer (AtCRY2) model.

The target of assay [4] is HaloTag-AtCRY2(D387A) (Arabidopsis thaliana). As to the kind of experiment: photon counting histogram (PCH) analysis (fluorescence fluctuation spectroscopy); light state: the same living HEK293T cells measured at once after 5 min of blue light (about 6 mW/cm^2 at the sample plane, 450-490 nm), one 30 s measurement a cell; HaloTag-JF646 fusions; brightness relative to the monomeric standard, corrected for 70% labelling; oligomer percent from a monomer-dimer (VfAuLOV) or monomer-tetramer (AtCRY2) model.

The target is the same in assay [5]. In words: photon counting histogram (PCH) analysis (fluorescence fluctuation spectroscopy); dark state; HaloTag fusions labelled with 200 nM JF646 in living HEK293T cells, UBC promoter, protomer about 50-1,700 nM; single-point measurement of 30 s, 20 kHz binning, 15 ns dead time, ambient temperature (22-23°C); brightness relative to the monomeric HaloTag standard and corrected for 70% labelling; population average; oligomer percent from a monomer-dimer (VfAuLOV) or monomer-tetramer (AtCRY2) model.

The target in assay [6] is HaloTag-AtCRY2(W374A) (Arabidopsis thaliana). In words: photon counting histogram (PCH) analysis (fluorescence fluctuation spectroscopy); light state: the same living HEK293T cells measured at once after 5 min of blue light (about 6 mW/cm^2 at the sample plane, 450-490 nm), one 30 s measurement a cell; HaloTag-JF646 fusions; brightness relative to the monomeric standard, corrected for 70% labelling; oligomer percent from a monomer-dimer (VfAuLOV) or monomer-tetramer (AtCRY2) model.

For assay [7] the target is unchanged. As to the kind of experiment: photon counting histogram (PCH) analysis (fluorescence fluctuation spectroscopy); dark state; HaloTag fusions labelled with 200 nM JF646 in living HEK293T cells, UBC promoter, protomer about 50-1,700 nM; single-point measurement of 30 s, 20 kHz binning, 15 ns dead time, ambient temperature (22-23°C); brightness relative to the monomeric HaloTag standard and corrected for 70% labelling; population average; oligomer percent from a monomer-dimer (VfAuLOV) or monomer-tetramer (AtCRY2) model.

Assay [8] has as its target HaloTag-AtCRY2(R439L) (Arabidopsis thaliana). In words: photon counting histogram (PCH) analysis (fluorescence fluctuation spectroscopy); light state: the same living HEK293T cells measured at once after 5 min of blue light (about 6 mW/cm^2 at the sample plane, 450-490 nm), one 30 s measurement a cell; HaloTag-JF646 fusions; brightness relative to the monomeric standard, corrected for 70% labelling; oligomer percent from a monomer-dimer (VfAuLOV) or monomer-tetramer (AtCRY2) model.

Assay [9] has the same target. As to the kind of experiment: photon counting histogram (PCH) analysis (fluorescence fluctuation spectroscopy); dark state; HaloTag fusions labelled with 200 nM JF646 in living HEK293T cells, UBC promoter, protomer about 50-1,700 nM; single-point measurement of 30 s, 20 kHz binning, 15 ns dead time, ambient temperature (22-23°C); brightness relative to the monomeric HaloTag standard and corrected for 70% labelling; population average; oligomer percent from a monomer-dimer (VfAuLOV) or monomer-tetramer (AtCRY2) model.

The target in assay [10] is HaloTag-bZip-VfAuLOV: VfAuLOV with the basic residues and leucine zipper domain of Vaucheria frigida Aureochrome1, fused to HaloTag (Vaucheria frigida). As to the kind of experiment: photon counting histogram (PCH) analysis (fluorescence fluctuation spectroscopy); dissociation kinetics in living HEK293T cells: relative brightness measured at times after a 5-min exposure to blue light was turned off, each measurement 30 s; averaged curves fitted with a single-exponential decay; half-life = ln2 x lifetime.

For assay [11] the target is unchanged. In words: photon counting histogram (PCH) analysis (fluorescence fluctuation spectroscopy); light state: the same living HEK293T cells measured at once after 5 min of blue light (about 6 mW/cm^2 at the sample plane, 450-490 nm), one 30 s measurement a cell; HaloTag-JF646 fusions; brightness relative to the monomeric standard, corrected for 70% labelling; oligomer percent from a monomer-dimer (VfAuLOV) or monomer-tetramer (AtCRY2) model.

For assay [12] the target is unchanged. As to the kind of experiment: photon counting histogram (PCH) analysis (fluorescence fluctuation spectroscopy); dark state; HaloTag fusions labelled with 200 nM JF646 in living HEK293T cells, UBC promoter, protomer about 50-1,700 nM; single-point measurement of 30 s, 20 kHz binning, 15 ns dead time, ambient temperature (22-23°C); brightness relative to the monomeric HaloTag standard and corrected for 70% labelling; population average; oligomer percent from a monomer-dimer (VfAuLOV) or monomer-tetramer (AtCRY2) model.

For assay [13], the target named is HaloTag-HsCRY2: human CRY2 photolyase homology region fused to HaloTag (human). As to the kind of experiment: photon counting histogram (PCH) analysis (fluorescence fluctuation spectroscopy); light state: the same living HEK293T cells measured at once after 5 min of blue light (about 6 mW/cm^2 at the sample plane, 450-490 nm), one 30 s measurement a cell; HaloTag-JF646 fusions; brightness relative to the monomeric standard, corrected for 70% labelling; oligomer percent from a monomer-dimer (VfAuLOV) or monomer-tetramer (AtCRY2) model.

Assay [14] has the same target. In words: photon counting histogram (PCH) analysis (fluorescence fluctuation spectroscopy); dark state; HaloTag fusions labelled with 200 nM JF646 in living HEK293T cells, UBC promoter, protomer about 50-1,700 nM; single-point measurement of 30 s, 20 kHz binning, 15 ns dead time, ambient temperature (22-23°C); brightness relative to the monomeric HaloTag standard and corrected for 70% labelling; population average; oligomer percent from a monomer-dimer (VfAuLOV) or monomer-tetramer (AtCRY2) model.

For assay [15], the target named is HaloTag-AtCRY2: photolyase homology region of cryptochrome 2 from Arabidopsis thaliana fused to HaloTag (Arabidopsis thaliana). In words: photon counting histogram (PCH) analysis (fluorescence fluctuation spectroscopy); dissociation kinetics in living HEK293T cells: relative brightness measured at times after a 5-min exposure to blue light was turned off, each measurement 30 s; averaged curves fitted with a single-exponential decay; half-life = ln2 x lifetime.

Assay [16] has the same target. As to the kind of experiment: photon counting histogram (PCH) analysis (fluorescence fluctuation spectroscopy); light state: the same living HEK293T cells measured at once after 5 min of blue light (about 6 mW/cm^2 at the sample plane, 450-490 nm), one 30 s measurement a cell; HaloTag-JF646 fusions; brightness relative to the monomeric standard, corrected for 70% labelling; oligomer percent from a monomer-dimer (VfAuLOV) or monomer-tetramer (AtCRY2) model.

For assay [17] the target is unchanged. In words: photon counting histogram (PCH) analysis (fluorescence fluctuation spectroscopy); dark state; HaloTag fusions labelled with 200 nM JF646 in living HEK293T cells, UBC promoter, protomer about 50-1,700 nM; single-point measurement of 30 s, 20 kHz binning, 15 ns dead time, ambient temperature (22-23°C); brightness relative to the monomeric HaloTag standard and corrected for 70% labelling; population average; oligomer percent from a monomer-dimer (VfAuLOV) or monomer-tetramer (AtCRY2) model.

The stoichiometry N is the number of molecules, sites or subunits per partner or assembly. “HaloTag-VfAuLOV: light-oxygen-voltage (LOV) domain of Vaucheria frigida Aurochrome1 fused to HaloTag (domain or fragment)” came in with a dissociation half-life in assay [1] of 8.73 min. For the same substance, in assay [2], the oligomer percentage (dimer fraction, monomer-dimer model) came out at 100%; the relative brightness (corrected; monomer = 1, dimer = 2) was found to be 2; the stoichiometry N was found to be 2. In assay [3], this substance had an oligomer percentage (dimer fraction, monomer-dimer model) of 18% and a relative brightness (corrected; monomer = 1, dimer = 2) of 1.3.
For “HaloTag-AtCRY2(D387A) (domain or fragment)”, the oligomer percentage (tetramer fraction, monomer-tetramer model) in [4] and in assay [5] was below 1% throughout. For the same substance, the relative brightness (corrected; monomer = 1, tetramer = 4) in [4] and in assay [5] was 1.1 in each case.
“HaloTag-AtCRY2(W374A) (domain or fragment)”: in assay [6], the oligomer percentage (tetramer fraction, monomer-tetramer model) was determined as 20% and the relative brightness (corrected; monomer = 1, tetramer = 4) is 2.5. For the same substance, in assay [7], the oligomer percentage (tetramer fraction, monomer-tetramer model) was determined as 5% and the relative brightness (corrected; monomer = 1, tetramer = 4) was 1.5.
Consider “HaloTag-AtCRY2(R439L) (domain or fragment)”, for which, in [8], the oligomer percentage (tetramer fraction, monomer-tetramer model) is below 1% and the relative brightness (corrected; monomer = 1, tetramer = 4) came out at 1.1. Moreover, in [9], the oligomer percentage (tetramer fraction, monomer-tetramer model) was below 1% and the relative brightness (corrected; monomer = 1, tetramer = 4) was 1.1.
As to “HaloTag-bZip-VfAuLOV: VfAuLOV with the basic residues and leucine zipper domain of Vaucheria frigida Aureochrome1, fused to HaloTag (domain or fragment)”, in assay [10], the dissociation half-life is 6.89 min. In assay [11], this substance came in with an oligomer percentage (dimer fraction, monomer-dimer model) of 67%; a relative brightness (corrected; monomer = 1, dimer = 2) of 1.8; a stoichiometry N of 2. In assay [12], this substance gave an oligomer percentage (dimer fraction, monomer-dimer model) of 33% and a relative brightness (corrected; monomer = 1, dimer = 2) of 1.5.
As for “HaloTag-HsCRY2: human CRY2 photolyase homology region fused to HaloTag (domain or fragment)”, the figures for the relative brightness (corrected; monomer = 1) in assay [13] and in [14] were 1.3 and 1.2, respectively.
Regarding “HaloTag-AtCRY2: photolyase homology region of cryptochrome 2 from Arabidopsis thaliana fused to HaloTag (domain or fragment)”, the dissociation half-life in [15] came out at 4.29 min. In [16], this substance showed an oligomer percentage (tetramer fraction, monomer-tetramer model) of 27%; a relative brightness (corrected; monomer = 1, tetramer = 4) of 2.8; a stoichiometry N of 4. In [17], this substance displayed an oligomer percentage (tetramer fraction, monomer-tetramer model) below 1%; an oligomer percentage (tetramer fraction, monomer-tetramer model; only data above 500 nM) of 1.8%; a relative brightness (corrected; monomer = 1, tetramer = 4) of 1.1; a relative brightness (corrected; only data above 500 nM) of 1.2.
